Source: patent US20230395193A1 (priority 2020, published 2023)

Tested on: SARS-CoV-1, MERS-CoV and SARS-CoV-2 proteins in HEK293T cells
Parameters: species or system human

| Molecule | MIST_MERS | MIST_SARS1 | MIST_SARS2 | Saint_MERS | Saint_SARS1 | Saint_SARS2 |
| --- | --- | --- | --- | --- | --- | --- |
| M-Q9NVI1 (protein, UniProt Q9NVI1 1-1328, looked up, interactor of viral M protein) Fanconi anemia group I protein: MDQKILSLAAEKTADKLQEFLQTLREGDLTNLLQNQAVKGKVAGALLRAIFKGSPCSEEAGTLRRRKIYTCCIQLVESGDLQKEIASEIIGLLMLEAHHFPGPLLVELANEFISAVREGSLVNGKSLELLPIILTALATKKENLAYGKGVLSGEECKKQLINTLCSGRWDQQYVIQLTSMFKDVPLTAEEVEFVVEKALSMFSKMNLQEIPPLVYQLLVLSSKGSRKSVLEGIIAFFSALDKQHNEEQSGDELLDVVTVPSGELRHVEGTIILHIVFAIKLDYELGRELVKHLKVGQQGDSNNNLSPFSIALLLSVTRIQRFQDQVLDLLKTSVVKSFKDLQLLQGSKFLQNLVPHRSYVSTMILEVVKNSVHSWDHVTQGLVELGFILMDSYGPKKVLDGKTIETSPSLSRMPNQHACKLGANILLETFKIHEMIRQEILEQVLNRVVTRASSPISHFLDLLSNIVMYAPLVLQSCSSKVTEAFDYLSFLPLQTVQRLLKAVQPLLKVSMSMRDCLILVLRKAMFANQLDARKSAVAGFLLLLKNFKVLGSLSSSQCSQSLSVSQVHVDVHSHYNSVANETFCLEIMDSLRRCLSQQADVRLMLYEGFYDVLRRNSQLANSVMQTLLSQLKQFYEPKPDLLPPLKLEACILTQGDKISLQEPLDYLLCCIQHCLAWYKNTVIPLQQGEEEEEEEEAFYEDLDDILESITNRMIKSELEDFELDKSADFSQSTSIGIKNNICAFLVMGVCEVLIEYNFSISSFSKNRFEDILSLFMCYKKLSDILNEKAGKAKTKMANKTSDSLLSMKFVSSLLTALFRDSIQSHQESLSVLRSSNEFMRYAVNVALQKVQQLKETGHVSGPDGQNPEKIFQNLCDITRVLLWRYTSIPTSVEESGKKEKGKSISLLCLEGLQKIFSAVQQFYQPKIQQFLRALDVTDKEGEEREDADVSVTQRTAFQIRQFQRSLLNLLSSQEEDFNSKEALLLVTVLTSLSKLLEPSSPQFVQMLSWTSKICKENSREDALFCKSLMNLLFSLHVSYKSPVILLRDLSQDIHGHLGDIDQDVEVEKTNHFAIVNLRTAAPTVCLLVLSQAEKVLEEVDWLITKLKGQVSQETLSEEASSQATLPNQPVEKAIIMQLGTLLTFFHELVQTALPSGSCVDTLLKDLCKMYTTLTALVRYYLQVCQSSGGIPKNMEKLVKLSGSHLTPLCYSFISYVQNKSKSLNYTGEKKEKPAAVATAMARVLRETKPIPNLIFAIEQYEKFLIHLSKKSKVNLMQHMKLSTSRDFKIKGNILDMVLREDGEDENEEGTASEHGGQNKEPAKKKRKK | 0.8133 | 0.7245 | 0.5573 | 1 | 1 | 1 |
| M-Q9ULX6 (protein, UniProt Q9ULX6 1-646, looked up) A-kinase anchor protein 8-like: MSYTGFVQGSETTLQSTYSDTSAQPTCDYGYGTWNSGTNRGYEGYGYGYGYGQDNTTNYGYGMATSHSWEMPSSDTNANTSASGSASADSVLSRINQRLDMVPHLETDMMQGGVYGSGGERYDSYESCDSRAVLSERDLYRSGYDYSELDPEMEMAYEGQYDAYRDQFRMRGNDTFGPRAQGWARDARSGRPMASGYGRMWEDPMGARGQCMSGASRLPSLFSQNIIPEYGMFQGMRGGGAFPGGSRFGFGFGNGMKQMRRTWKTWTTADFRTKKKKRKQGGSPDEPDSKATRTDCSDNSDSDNDEGTEGEATEGLEGTEAVEKGSRVDGEDEEGKEDGREEGKEDPEKGALTTQDENGQTKRKLQAGKKSQDKQKKRQRDRMVERIQFVCSLCKYRTFYEDEMASHLDSKFHKEHFKYVGTKLPKQTADFLQEYVTNKTKKTEELRKTVEDLDGLIQQIYRDQDLTQEIAMEHFVKKVEAAHCAACDLFIPMQFGIIQKHLKTMDHNRNRRLMMEQSKKSSLMVARSILNNKLISKKLERYLKGENPFTDSPEEEKEQEEAEGGALDEGAQGEAAGISEGAEGVPAQPPVPPEPAPGAVSPPPPPPPEEEEEGAVPLLGGALQRQIRGIPGLDVEDDEEGGGGAP | 0 | 0.34 | 0.752 | 0 | 0.98 | 1 |
| M-Q9ULF5 (protein, UniProt Q9ULF5 26-831, looked up) Zinc transporter ZIP10: HEEHDHGPEALHRQHRGMTELEPSKFSKQAAENEKKYYIEKLFERYGENGRLSFFGLEKLLTNLGLGERKVVEINHEDLGHDHVSHLDILAVQEGKHFHSHNHQHSHNHLNSENQTVTSVSTKRNHKCDPEKETVEVSVKSDDKHMHDHNHRLRHHHRLHHHLDHNNTHHFHNDSITPSERGEPSNEPSTETNKTQEQSDVKLPKGKRKKKGRKSNENSEVITPGFPPNHDQGEQYEHNRVHKPDRVHNPGHSHVHLPERNGHDPGRGHQDLDPDNEGELRHTRKREAPHVKNNAIISLRKDLNEDDHHHECLNVTQLLKYYGHGANSPISTDLFTYLCPALLYQIDSRLCIEHFDKLLVEDINKDKNLVPEDEANIGASAWICGIISITVISLLSLLGVILVPIINQGCFKFLLTFLVALAVGTMSGDALLHLLPHSQGGHDHSHQHAHGHGHSHGHESNKFLEEYDAVLKGLVALGGIYLLFIIEHCIRMFKHYKQQRGKQKWFMKQNTEESTIGRKLSDHKLNNTPDSDWLQLKPLAGTDDSVVSEDRLNETELTDLEGQQESPPKNYLCIEEEKIIDHSHSDGLHTIHEHDLHAAAHNHHGENKTVLRKHNHQWHHKHSHHSHGPCHSGSDLKETGIANIAWMVIMGDGIHNFSDGLAIGAAFSAGLTGGISTSIAVFCHELPHELGDFAVLLKAGMTVKQAIVYNLLSAMMAYIGMLIGTAVGQYANNITLWIFAVTAGMFLYVALVDMLPEMLHGDGDNEEHGFCPVGQFILQNLGLLFGFAIMLVIALYEDKIVFDIQF | 0 | 0.7375 | 0 | 0 | 1 | 0 |
| M-Q9UBU6 (protein, UniProt Q9UBU6 1-413, looked up, interaction partner of viral M protein) Protein FAM8A1: MAEGPEEARGHPPGQDDGGGDHEPVPSLRGPPTTAVPCPRDDPQAEPQAPGRPTAPGLAAAAAADKLEPPRELRKRGEAASGSGAELQEQAGCEAPEAAAPRERPARLSAREYSRQVHEWLWQSYCGYLTWHSGLAAFPAYCSPQPSPQSFPSGGAAVPQAAAPPPPQLGYYNPFYFLSPGAAGPDPRTAAGISTPAPVAGLGPRAPHVQASVRATPVTRVGSAAPSRSPSETGRQAGREYVIPSLAHRFMAEMVDFFILFFIKATIVLSIMHLSGIKDISKFAMHYIIEEIDEDTSMEDLQKMMVVALIYRLLVCFYEIICIWGAGGATPGKFLLGLRVVTCDTSVLIAPSRVLVIPSSNVSITTSTIRALIKNFSIASFFPAFITLLFFQHNRTAYDIVAGTIVVKRNGVR | 0 | 0.88 | 0.8045 | 0 | 0.63 | 0.97 |
| E-Q6DD88 (protein, UniProt Q6DD88 1-541, looked up, interactor of SARS-CoV-2 E) Atlastin-3: MLSPQRVAAAASRGADDAMESSKPGPVQVVLVQKDQHSFELDEKALASILLQDHIRDLDVVVVSVAGAFRKGKSFILDFMLRYLYSQKESGHSNWLGDPEEPLTGFSWRGGSDPETTGIQIWSEVFTVEKPGGKKVAVVLMDTQGAFDSQSTVKDCATIFALSTMTSSVQIYNLSQNIQEDDLQQLQLFTEYGRLAMDEIFQKPFQTLMFLVRDWSFPYEYSYGLQGGMAFLDKRLQVKEHQHEEIQNVRNHIHSCFSDVTCFLLPHPGLQVATSPDFDGKLKDIAGEFKEQLQALIPYVLNPSKLMEKEINGSKVTCRGLLEYFKAYIKIYQGEDLPHPKSMLQATAEANNLAAAASAKDIYYNNMEEVCGGEKPYLSPDILEEKHCEFKQLALDHFKKTKKMGGKDFSFRYQQELEEEIKELYENFCKHNGSKNVFSTFRTPAVLFTGIVALYIASGLTGFIGLEVVAQLFNCMVGLLLIALLTWGYIRYSGQYRELGGAIDFGAAYVLEQASSHIGNSTQATVRDAVVGRPSMDKKAQ | 0.9832 | 0 | 0 | 1 | 0 | 0 |
| M-Q9UKV5 (protein, UniProt Q9UKV5 1-643, looked up) E3 ubiquitin-protein ligase …: MPLLFLERFPWPSLRTYTGLSGLALLGTIISAYRALSQPEAGPGEPDQLTASLQPEPPAPARPSAGGPRARDVAQYLLSDSLFVWVLVNTACCVLMLVAKLIQCIVFGPLRVSERQHLKDKFWNFIFYKFIFIFGVLNVQTVEEVVMWCLWFAGLVFLHLMVQLCKDRFEYLSFSPTTPMSSHGRVLSLLVAMLLSCCGLAAVCSITGYTHGMHTLAFMAAESLLVTVRTAHVILRYVIHLWDLNHEGTWEGKGTYVYYTDFVMELTLLSLDLMHHIHMLLFGNIWLSMASLVIFMQLRYLFHEVQRRIRRHKNYLRVVGNMEARFAVATPEELAVNNDDCAICWDSMQAARKLPCGHLFHNSCLRSWLEQDTSCPTCRMSLNIADNNRVREEHQGENLDENLVPVAAAEGRPRLNQHNHFFHFDGSRIASWLPSFSVEVMHTTNILGITQASNSQLNAMAHQIQEMFPQVPYHLVLQDLQLTRSVEITTDNILEGRIQVPFPTQRSDSIRPALNSPVERPSSDQEEGETSAQTERVPLDLSPRLEETLDFGEVEVEPSEVEDFEARGSRFSKSADERQRMLVQRKDELLQQARKRFLNKSSEDDAASESFLPSEGASSDPVTLRRRMLAAAAERRLQKQQTS | 0.2719 | 0.9871 | 0.04352 | 0 | 1 | 1 |
| M-Q9UI26 (protein, UniProt Q9UI26 1-975, looked up, interactor of M protein) Importin-11: MDLNSASTVVLQVLTQATSQDTAVLKPAEEQLKQWETQPGFYSVLLNIFTNHTLDINVRWLAVLYFKHGIDRYWRRVAPHALSEEEKTTLRAGLITNFNEPINQIATQIAVLIAKVARLDCPRQWPELIPTLIESVKVQDDLRQHRALLTFYHVTKTLASKRLAADRKLFYDLASGIYNFACSLWNHHTDTFLQEVSSGNEAAILSSLERTLLSLKVLRKLTVNGFVEPHKNMEVMGFLHGIFERLKQFLECSRSIGTDNVCRDRLEKTIILFTKVLLDFLDQHPFSFTPLIQRSLEFSVSYVFTEVGEGVTFERFIVQCMNLIKMIVKNYAYKPSKNFEDSSPETLEAHKIKMAFFTYPTLTEICRRLVSHYFLLTEEELTMWEEDPEGFTVEETGGDSWKYSLRPCTEVLFIDIFHEYNQTLTPVLLEMMQTLQGPTNVEDMNALLIKDAVYNAVGLAAYELFDSVDFDQWFKNQLLPELQVIHNRYKPLRRRVIWLIGQWISVKFKSDLRPMLYEAICNLLQDQDLVVRIETATTLKLTVDDFEFRTDQFLPYLETMFTLLFQLLQQVTECDTKMHVLHVLSCVIERVNMQIRPYVGCLVQYLPLLWKQSEEHNMLRCAILTTLIHLVQGLGADSKNLYPFLLPVIQLSTDVSQPPHVYLLEDGLELWLVTLENSPCITPELLRIFQNMSPLLELSSENLRTCFKIINGYIFLSSTEFLQTYAVGLCQSFCELLKEITTEGQVQVLKVVENALKVNPILGPQMFQPILPYVFKGIIEGERYPVVMSTYLGVMGRVLLQNTSFFSSLLNEMAHKFNQEMDQLLGNMIEMWVDRMDNITQPERRKLSALALLSLLPSDNSVIQDKFCGIINISVEGLHDVMTEDPETGTYKDCMLMSHLEEPKVTEDEEPPTEQDKRKKMLALKDPVHTVSLQQFIYEKLKAQQEMLGEQGFQSLMETVDTEIVTQLQEFLQGF | 0.9937 | 0.6822 | 0.6494 | 0.99 | 1 | 1 |
